Test results: US20100227414A1, “Affinity capture mass spectroscopy with a porous silicon biosensor” (Trex Enterprises Corp., priority 2009, published 2010)

Biological target: extra-cellular receptor for interleukin 34 (Homo sapiens, UniProt P07333)
Test: NPOI flow cell label-free binding with fraction collection (AC-MS)
Text: The first embodiment is sketched in FIG. 3. The NPOI flow cell instrument is used together with a fraction collector. This fraction collector could simply be a collection vessel of some sort. Initially capture molecule is placed on the porous silicon chip using a typical flow cell procedure. A carboxyl chip shown at 214 in FIG. 2, used for amino coupling, is used. This contains both a sample and reference channel 220 and 221. Using the AutoPrep 200 and two 6-port, 2-position injection valves, one for the sample 210 and one for the reference 211, solutions are introduced to the flow cell. Initially the chip is activated using water as running buffer, pumped by two separate pumps one for sample 212 and one for reference 213, at 8 μL/min. A solution of 200 mM, 1-ethyl-3-(3-dimethylaminopropyl) carbodiimide (EDC) and 50 mM sufo N-hydroxysuccinimide (sNHS) is used to activate the chip for 8 minutes. Then a solution of 20 μg/mL capture molecule is introduced in pH 5.0, 40 mM acetate buffer (1-1,000 μg/mL concentration may also be used). […] The chip is now ready for binding. […]
A specific example of such an approach is shown in FIG. 8 which is a print of a monitor display showing Mascot Search Results. […] The resulting data was analyzed using Mascot and a customized human protein database (810) show the successful identification of IL34.

extra-cellular receptor for interleukin 34, sequence (P07333 20-517 limits assumed): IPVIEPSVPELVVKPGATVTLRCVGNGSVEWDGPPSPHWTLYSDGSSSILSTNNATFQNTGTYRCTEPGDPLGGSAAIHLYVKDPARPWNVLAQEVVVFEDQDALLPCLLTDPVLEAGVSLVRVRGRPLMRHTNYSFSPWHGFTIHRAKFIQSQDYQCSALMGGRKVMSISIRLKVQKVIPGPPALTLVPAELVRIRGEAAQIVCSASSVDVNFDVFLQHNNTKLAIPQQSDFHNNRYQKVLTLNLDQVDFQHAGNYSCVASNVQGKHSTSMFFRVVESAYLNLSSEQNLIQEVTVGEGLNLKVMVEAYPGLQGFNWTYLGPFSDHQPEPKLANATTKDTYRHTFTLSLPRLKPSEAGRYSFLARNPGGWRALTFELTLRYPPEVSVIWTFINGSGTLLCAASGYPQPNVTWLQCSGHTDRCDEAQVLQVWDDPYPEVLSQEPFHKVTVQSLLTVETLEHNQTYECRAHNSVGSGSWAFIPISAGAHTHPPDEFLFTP

change in OPD (label-free binding signal) (IL34 100 ng/mL in spent cell culture media, 50 μL, between 0 and 240 seconds, receptor immobilized at 100 μg/mL): 0.7 nm
amount captured on chip corresponding to OPD change (almost complete capture of the material introduced): 5 ng
B1: Interleukin 34 (protein, UniProt Q6ZMJ4 21-242, looked up)
Interleukin-34: NEPLEMWPLTQNEECTVTGFLRDKLQYRSRLQYMKHYFPINYKISVPYEGVFRIANVTRLQRAQVSERELRYLWVLVSLSATESVQDVLLEGHPSWKYLQEVETLLLNVQQGLTDVEVSPKVESVLSLLNAPGPNLKLVRPKALLDNCFRVMELLYCSCCKQSSVLNWQDCEVPSPQSCSPEPSLQYAATQLYPPPPWSPSSPPHSTGSVRPVRAQGEGLLP
notes: Interleukin 34 (the analyte) doped into spent cell culture media
